T1: human OX40 expressed on cells (human, UniProt P43489 29-277)
T1 construct: whole, on cells; also called OX40 expression HEK293 cells
T1 sequence (looked up): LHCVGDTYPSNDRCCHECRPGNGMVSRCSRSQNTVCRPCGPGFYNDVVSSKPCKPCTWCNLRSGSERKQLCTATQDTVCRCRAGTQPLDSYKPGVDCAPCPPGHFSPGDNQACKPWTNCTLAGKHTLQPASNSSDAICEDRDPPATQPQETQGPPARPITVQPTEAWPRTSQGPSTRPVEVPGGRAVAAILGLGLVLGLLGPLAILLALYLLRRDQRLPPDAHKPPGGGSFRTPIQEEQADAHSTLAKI

B1: anti-PD-L1 antibody clone 6 (antibody, human IgG4 S228P, lambda, V domains shown)
VH: QVQLVQSGAEVKKPGSSVKVSCKASGGTFRRYSISWVRQAPGQGLEWMGGIIPVFGAAKYAQKFQGRVTITADEFTSTAYMELSSLTSEDTAVYYCALSGDSDAFDIWGQGTMVTVSS
VL: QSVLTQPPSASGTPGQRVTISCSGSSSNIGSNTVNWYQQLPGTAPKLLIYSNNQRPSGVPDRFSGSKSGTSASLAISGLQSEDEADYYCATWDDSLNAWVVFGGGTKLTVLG
notes: also called PD-L1 clone 6; PD-L1-Clone 6
B2: OM-PD-L1-6 (Fab, V domains shown)
VH: B1 VH
VL: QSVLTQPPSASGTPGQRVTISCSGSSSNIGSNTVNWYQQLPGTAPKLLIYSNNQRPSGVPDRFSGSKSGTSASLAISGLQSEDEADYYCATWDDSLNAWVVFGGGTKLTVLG
notes: Fab from the phage library
B3: OM-OX40-A4 (Fab, V domains shown)
VH: QVQLVESGGGLVQPGGSLRLSCAASGFTFSSYEMNWVRQAPGKGLEWVSYISSSGSTIYYADSVKGRFTISRDNAKNSLYLQMNSLRAEDTAVYYCARGGVGDAFDIWGQGTMVTVSS
VL: QSALTQPPSASGSPGQSVTISCTGTSSDVGGYNYVSWYQQHPGKAPKLMIYEVSQRPSGVPDRFSGSKSGNTASLTVSGLQAEDEADYYCSSYAGSNNLGVFGGGTKLTVSS
notes: Fab from the phage library
B4: OM-OX40-B17 (Fab, V domains shown)
VH: EVQLVESGGVVVQPGGSLRLSCAASGFTFDDYTMHWVRQAPGKGLEWVSLISWDGGSTYYADSVKGRFTISRDNSKNSLYLQMNSLRTEDTALYYCASIYDPPPGSRSALDAFDIWGQGTMVTVSS
VL: SYVLTQPPSVSVTPGKTARIACGGNNLESKIVSWYQQKPGQAPVLVIFYDTDRPSGISERFSGSNSGNTATLTISRVEAGDEADYYCQVWDSNSDHVIFGGGTKLTVLG
notes: Fab from the phage library; variable regions identical to those of OX40 clone B17
B5: OM-OX40-B19 (Fab, V domains shown)
VH: EVQLVESGGGLVKPGGSLRLSCAASGFTFSSYSMNWVRQAPGKGLEWVSSISSSSRYIYYADSVKGRFTISRDNAKNSLYLQMNSLRAEDTAVYYCARQNEDVAFGIWGQGTMVTVSS
VL: B4 VL
notes: Fab from the phage library; variable regions identical to those of OX40 clone B19

How the values were obtained:
human PD-L1 = target: T2, human PD-L1 (human, UniProt Q9NZQ7 19-238, limits assumed); assay: direct ELISA
T2 construct: also called recombinant PD-L1

[1] = target: T3, human PD-L1 expressed on cells (human, UniProt Q9NZQ7 19-290); assay: flow cytometry on stable PD-L1 expression 293 cells, IFN-γ stimulated A549 or WiDr
T3 construct: whole, on cells; also called PD-L1 expression HEK293 cells
Description: The bound antibody fusion proteins were detected with Alexa-488 conjugated goat anti-human IgG (H+L) followed by FACS analysis. Isotype antibody was used as negative control for the test.

[2] = target: T4, human PD-L1 IgG1 Fc chimera (human, UniProt Q9NZQ7 19-238, limits assumed); assay: phage display selection and direct ELISA screening
T4 construct: Made by APBio; also called PD-L1-Fc; recombinant human PD-L1-Fc
Method: (§1) For the generation of therapeutic antibodies against PD-L1 or OX40, selections with the OmniMab phagemid library were carried out. The phagemid library is generated by AP Biosciences Inc. (APBio Inc.) from a collection of over hundred health donors B cells. Phages for the 1st round of pannings were prepared by Hyperphage (M13K07ΔρIII, Progen, Heidelberg, Germany). Solid phase panning and cell panning against PD-L1 or OX40 were applied for PD-L1 or OX40 specific binder selection and isolation from OmniMab library. […] Bound phages were detected by HRP conjugated anti-M13 antibody (Roche) and TMB substrate was used for signal development. The OD₄₅₀ readings were recorded. The positive binders were isolated and sent for sequencing to confirm the sequence and diversity of heavy chain and light chain.

[3] = target: T1, human OX40 expressed on cells; assay: phage display selection and cell-based ELISA screening
Method: as §1

T3 sequence (Q9NZQ7 19-290): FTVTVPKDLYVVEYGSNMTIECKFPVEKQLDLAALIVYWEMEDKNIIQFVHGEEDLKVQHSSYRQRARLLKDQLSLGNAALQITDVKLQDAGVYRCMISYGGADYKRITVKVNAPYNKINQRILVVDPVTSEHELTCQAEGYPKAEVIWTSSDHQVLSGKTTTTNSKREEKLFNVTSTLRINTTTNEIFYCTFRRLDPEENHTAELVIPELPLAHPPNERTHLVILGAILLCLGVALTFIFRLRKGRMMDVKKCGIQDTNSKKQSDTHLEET
T4 sequence (Q9NZQ7 19-238 limits assumed, change not shown): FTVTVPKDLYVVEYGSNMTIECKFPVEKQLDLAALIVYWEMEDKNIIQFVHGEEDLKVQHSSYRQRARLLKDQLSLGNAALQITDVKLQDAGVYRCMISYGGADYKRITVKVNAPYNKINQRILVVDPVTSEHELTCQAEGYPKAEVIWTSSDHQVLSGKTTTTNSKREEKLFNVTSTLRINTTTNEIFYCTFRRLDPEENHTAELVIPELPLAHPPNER
T2 sequence (Q9NZQ7 19-238 limits assumed): as the sequence (Q9NZQ7 19-238 limits assumed, change not shown) above

Binder | binding result [3] | other results
B1 | – | binding result (human PD-L1): binds; binding result [1]: binds
B2 | – | binding result [2]: binds
B3 | binds | –
B4 | binds | –
B5 | binds | –
